The assay addresses T1, Aβ42 peptide (amyloid β peptide 1-42), soluble (UniProt P05067 672-713).
T1 construct: domain: Aβ1-42; also called Aβ1-42; soluble Aβ42 peptide
Description: ELISA; tat-VL coated, Aβ42 peptide at 100 ng/well, anti-Aβ42 monoclonal antibody detection. (In general: In an ELISA, binding on a coated surface is turned into a signal by an enzyme label.)

T1 sequence (P05067 672-713 limits assumed): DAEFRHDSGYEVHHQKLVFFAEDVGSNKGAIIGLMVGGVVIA

B1: tat peptide-fused human-derived anti-Aβ42 peptide VL chain (other)
chain: MGYGRKKRRQRRRGDIVMTQSPDSLAVSLGERATINCKSSQSVIHNSNVKNCLAWYQQKLGQPPNLLIYWASTRESGVPDRFSGSGSGTDFTLKISRVEAEDVGVYYCMQSIQLPRTFGQGTKVEIKR
notes: also called tat-VL chain; tat peptide-fused VL chain
B1: the binding result was “binds”.

Source of the values: patent US20080131422A1 (JURIDICAL FOUNDATION THE CHEMO SERO THERAPEUTIC RESEARCH …, published 2008).
